Values of other authors in patent US20220280635A1, “PARTICLES FOR STIMULATING AN IMMUNE RESPONSE AGAINST VIRAL INFECTIONS” (FINNCURE OY, priority 2020, published 2022).

Biological target: ACE2 (Homo sapiens, UniProt Q9BYF1)
Conditions: simulation, ref [8]

Chain of ACE2 (Q9BYF1 18-805): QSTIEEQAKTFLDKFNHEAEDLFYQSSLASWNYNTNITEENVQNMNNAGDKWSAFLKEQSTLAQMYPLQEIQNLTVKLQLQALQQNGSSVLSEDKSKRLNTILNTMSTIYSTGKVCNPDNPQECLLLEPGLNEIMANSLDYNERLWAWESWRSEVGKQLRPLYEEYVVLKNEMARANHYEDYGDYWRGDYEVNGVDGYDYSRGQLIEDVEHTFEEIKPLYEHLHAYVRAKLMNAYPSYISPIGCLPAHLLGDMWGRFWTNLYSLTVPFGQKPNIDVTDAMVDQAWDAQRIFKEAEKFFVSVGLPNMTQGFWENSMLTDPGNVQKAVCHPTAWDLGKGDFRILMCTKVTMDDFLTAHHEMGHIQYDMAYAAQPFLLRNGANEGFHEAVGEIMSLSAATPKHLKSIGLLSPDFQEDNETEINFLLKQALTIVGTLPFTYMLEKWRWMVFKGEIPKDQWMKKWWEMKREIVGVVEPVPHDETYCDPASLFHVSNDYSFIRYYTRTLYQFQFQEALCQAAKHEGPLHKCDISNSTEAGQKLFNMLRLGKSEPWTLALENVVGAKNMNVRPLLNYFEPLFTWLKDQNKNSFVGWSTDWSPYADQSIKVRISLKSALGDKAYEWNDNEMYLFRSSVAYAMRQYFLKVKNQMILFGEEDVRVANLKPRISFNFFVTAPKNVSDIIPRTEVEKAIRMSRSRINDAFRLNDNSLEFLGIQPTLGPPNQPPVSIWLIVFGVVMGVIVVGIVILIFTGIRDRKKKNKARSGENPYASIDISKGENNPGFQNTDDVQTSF

Substance: YKYNYI: alternative synthetic hexapeptide variant (Potential alternative synthetic hexapeptide variant)
- binding affinity towards the ACE2 receptor compared with YKYRYL: even stronger binding affinity

Substance: YKYNYL: alternative synthetic hexapeptide variant (Potential alternative synthetic hexapeptide variant)
- binding affinity towards the ACE2 receptor compared with YKYRYL: even stronger binding affinity
